Tested on: FgU2AF23-His;GST-FgRbp1 (Fusarium graminearum PH-1;Fusarium graminearum PH-1)
Experiment: pull-down
Conditions: scale: fold FgU2AF23-His bound vs FgU2AF23 alone

## FgRPS20 exon1-intron1-exon2 RNA
  binding signal: 1.6

From PMC8113354
